These results are taken from patent US20020064869A1 (published 2002).

Assay [1] deals with Fas on TIL1200 cells (human) (UniProt P25445). Nature of the assay: cell-based or functional assay.
Assay [2] deals with LTβR on the surface of human cancer cells (MDA-MB-231, HT-29) (human, UniProt P36941 31-435). Nature of the assay: cell-based or functional assay.
For assay [3], the target named is T1, TR2 on the surface of human cells (MDA-MB-231, HT-29, PBL T cells) (human, UniProt Q92956 39-283).
T1 sequence (looked up): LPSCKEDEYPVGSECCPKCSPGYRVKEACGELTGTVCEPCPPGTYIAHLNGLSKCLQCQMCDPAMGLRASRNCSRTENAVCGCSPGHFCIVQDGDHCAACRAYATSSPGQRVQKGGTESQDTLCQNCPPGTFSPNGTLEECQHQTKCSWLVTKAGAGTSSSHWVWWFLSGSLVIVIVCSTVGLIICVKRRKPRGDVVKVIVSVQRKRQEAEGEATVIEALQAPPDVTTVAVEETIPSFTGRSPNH
Put plainly: cell-based or functional assay.

For assay [4], the target named is T2, human LTβR-Fc fusion protein (extracellular domain of lymphotoxin-β receptor fused to IgG1 Fc) (human, UniProt P36941 31-227).
T2 construct: extracellular domain; Made in baculovirus-infected Sf21 cells; also called sLTβR-Fc; lymphotoxin-β receptor-Fc fusion protein; not shown: IgG1 Fc from vector pUC19-IgG1-Fc; hybridomas were counter-screened on human IgG1
T2 sequence (P36941 31-227 limits assumed): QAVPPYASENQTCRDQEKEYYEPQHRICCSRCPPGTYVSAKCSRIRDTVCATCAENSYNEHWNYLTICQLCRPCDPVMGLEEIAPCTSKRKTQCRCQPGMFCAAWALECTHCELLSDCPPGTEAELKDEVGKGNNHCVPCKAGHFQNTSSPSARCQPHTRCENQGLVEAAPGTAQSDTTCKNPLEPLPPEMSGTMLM
Nature of the assay: BIAcore, LTβR-Fc immobilized, CHO conditioned media. For orientation: SPR reads the build-up and loss of mass on a sensor chip optically.

Sequence of LTβR on the surface of human cancer cells (MDA-MB-231, HT-29) (P36941 31-435): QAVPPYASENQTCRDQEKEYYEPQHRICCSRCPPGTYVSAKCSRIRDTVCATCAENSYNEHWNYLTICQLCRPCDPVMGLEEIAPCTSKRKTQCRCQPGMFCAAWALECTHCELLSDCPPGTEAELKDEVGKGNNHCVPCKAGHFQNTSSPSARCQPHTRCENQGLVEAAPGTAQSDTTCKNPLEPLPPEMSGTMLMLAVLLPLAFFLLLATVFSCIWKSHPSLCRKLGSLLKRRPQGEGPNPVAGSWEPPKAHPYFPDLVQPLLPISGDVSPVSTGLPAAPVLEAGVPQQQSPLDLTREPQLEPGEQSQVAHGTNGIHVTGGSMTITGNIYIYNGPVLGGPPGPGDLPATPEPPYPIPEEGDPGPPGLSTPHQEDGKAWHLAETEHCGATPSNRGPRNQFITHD
Sequence of Fas on TIL1200 cells (human) (P25445 26-335): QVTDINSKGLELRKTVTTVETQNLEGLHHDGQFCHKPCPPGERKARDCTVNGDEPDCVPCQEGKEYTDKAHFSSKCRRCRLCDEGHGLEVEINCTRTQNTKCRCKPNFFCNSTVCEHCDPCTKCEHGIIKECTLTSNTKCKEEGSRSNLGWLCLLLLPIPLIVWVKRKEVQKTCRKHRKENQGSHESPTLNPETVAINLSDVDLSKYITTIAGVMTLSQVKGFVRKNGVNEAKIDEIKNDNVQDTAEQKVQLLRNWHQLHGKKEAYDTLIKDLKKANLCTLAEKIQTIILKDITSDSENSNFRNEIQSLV

The molecule “apoptosis inducing anti-Fas Mab CH-11 (antibody)” showed an apoptosis of TIL1200 cells in assay [1] of 90%.

B1: recombinant soluble form of AIM II protein (sAIM II), Flag-tagged, amino acids 74-240 of AIM II (ligand, not shown: small tags and cut ends)
chain: DGPAGSWEQLIQERRSHEVNPAAHLTGANSSLTGSGGPLLWETQLGLAFLRGLSYHDGALVVTKAGYYYIYSKVQLGGVGCPLGLASTITHGLYKRTPRYPEELELLVSQQSPCGRATSSSRVWWDSSFLGGVVHLEAGEEVVVRVLDERLVRLRDGTRSYFGAFMV
For the molecule B1, the “IC50 of cytotoxic effect on HT-29 cells in the presence of 10 u/ml IFNγ” value in assay [2] and in assay [3] was under 1 ng/mL in each case.

B2: ck-beta8/AIM II fusion protein, extracellular region of AIM II (amino acids 60-240), from CHO 11 conditioned media (ligand)
chain: SQAGSQLHWRLGEMVTRLPDGPAGSWEQLIQERRSHEVNPAAHLTGANSSLTGSGGPLLWETQLGLAFLRGLSYHDGALVVTKAGYYYIYSKVQLGGVGCPLGLASTITHGLYKRTPRYPEELELLVSQQSPCGRATSSSRVWWDSSFLGGVVHLEAGEEVVVRVLDERLVRLRDGTRSYFGAFMV
notes: Two N-termini were found (40% each): SQAGS... and GSQLH; the second species lacks the first three residues SQA; also called CHO-11 AIM II; ck-beta-8-AIM2
As for B2, the binding result in assay [4] is on record as “binds”.
